This note sets out measurements from article PMC9255381.

Common to all, as to experiment: BLI
Experiment [1] deals with vWF-A1 of D. marsupialis (D. marsupialis (Didelphis)).
In experiment [2] the target is vWF-A1 of Didelphis virginiana (Didelphis virginiana).
In experiment [3] the target is vWF-A1 of C. minimus (C. minimus (Chironectes)).
Experiment [4] deals with vWF-A1 of D. albiventus (D. albiventus (Didelphis)).
Experiment [5] concerns the target vWF-A1 of D. aurita (made by site-directed mutagenesis of the D. marsupialis construct) (D. aurita (Didelphis)).
For experiment [6], the target named is vWF-A1 of Lutreolina crassicaudata (Lutreolina crassicaudata).
In experiment [7] the target is vWF-A1 of Monodelphis domestica (Monodelphis domestica).
Experiment [8] has as its target vWF-A1 of Monodelphis emiliae (Monodelphis emiliae).
Experiment [9] addresses vWF-A1 of P. quica (P. quica (Philander)).

On to “botrocetin (isoform A) (natural protein)”, for which the fold reduction of binding affinity against human vWF in [1] and in experiment [2] was greater than 8 fold each time.

Regarding “botrocetin (isoform B) (natural protein)”, the fold reduction of binding affinity against human vWF in experiment [3] was greater than 8 fold; in experiment [4] it was greater than 8 fold; in experiment [5], 8 fold; in experiment [1], greater than 8 fold; in experiment [2] it was greater than 8 fold; in experiment [6], greater than 8 fold. The fold reduction of binding affinity against human vWF in [7], in experiment [8] and in experiment [9] was greater than 8 fold throughout.
